The results in this text go back to patent US20200024330A1.

The target in test [1] is HIV-1 Env of isolate 92RW008 (HIV-1). In words: cell-based or functional assay.
For test [2], the target named is HIV-1 JRFL envelope glycoprotein (Env) (HIV-1). Description: cell-based or functional assay.
In test [3] the target is HIV-1 93UG077 envelope glycoprotein (Env) (HIV-1). In words: cell-based or functional assay.
Test [4] concerns the target HIV-1 Env of isolate 92WR009 (HIV-1). Description: cell-based or functional assay.
Test [5] addresses HIV-1 Env of isolate MGRM-A-002 (HIV-1). Description: cell-based or functional assay.
In test [6] the target is HIV-1 Env of isolate MGRM-A-010 (HIV-1). In words: cell-based or functional assay.
Test [7] concerns the target HIV-1 Env of isolate CMU02 (HIV-1). In words: cell-based or functional assay.
Test [8] deals with HIV-1 Env of isolate MGRM-A-009 (HIV-1). Description: cell-based or functional assay.
In test [9] the target is HIV-1 JRCSF envelope glycoprotein (Env) (HIV-1) (UniProt P20871). In words: cell-based or functional assay.
Test [10] addresses HIV-1 Env of isolate 94UG103 (HIV-1). Description: cell-based or functional assay.
In test [11] the target is HIV-1 Env of isolate MGRM-A-004 (HIV-1). In words: cell-based or functional assay.
The target in test [12] is HIV-1 NL43 envelope glycoprotein (Env) (HIV-1). Description: cell-based or functional assay.
Test [13] concerns the target HIV-1 Env of isolate MGRM-A-003 (HIV-1). Description: cell-based or functional assay.
The target in test [14] is HIV-1 Env of isolate 92UG031 (HIV-1). Description: cell-based or functional assay.
Test [15] has as its target HIV-1 MGRM-A-010 envelope glycoprotein (Env) (HIV-1). Description: cell-based or functional assay.
The target of test [16] is HIV-1 Env of isolate MGRM-A-014 (HIV-1). In words: cell-based or functional assay.
The target in test [17] is HIV-1 Env of isolate MGRM-A-012 (HIV-1). Description: cell-based or functional assay.
Test [18] addresses HIV-1 Env of isolate MGRM-AE-003 (HIV-1). In words: cell-based or functional assay.
Test [19] deals with HIV-1 94UG103 envelope glycoprotein (Env) (HIV-1). In words: cell-based or functional assay.
Test [20] deals with HIV-1 MGRM-C-027 envelope glycoprotein (Env) (HIV-1). Description: cell-based or functional assay.
The target in test [21] is HIV-1 Env of isolate 92UG037 (HIV-1). In words: cell-based or functional assay.
In test [22] the target is HIV-1 Env of isolate 93WR029 (HIV-1). Description: cell-based or functional assay.
In test [23] the target is HIV-1 Env of isolate MGRM-A-011 (HIV-1). Description: cell-based or functional assay.
Test [24] addresses HIV-1 JR-CSF Env G324A (HIV-1 isolate JR-CSF) (UniProt P20871). Description: cell-based or functional assay.
Test [25] concerns the target HIV-1 Env of isolate MGRM-AE-002 (HIV-1). In words: cell-based or functional assay.
Test [26] concerns the target HIV-1 Env of isolate 94KE105 (HIV-1). Description: cell-based or functional assay.
The target of test [27] is HIV-1 Env of isolate 92BR020 (HIV-1). Description: cell-based or functional assay.
The target of test [28] is HIV-1 93IN905 envelope glycoprotein (Env) (HIV-1). In words: cell-based or functional assay.
The target of test [29] is HIV-1 Env of isolate MGRM-A-005 (HIV-1). In words: cell-based or functional assay.
The target in test [30] is HIV-1 Env of isolate 92WR024 (HIV-1). In words: cell-based or functional assay.
Test [31] addresses HIV-1 APV17 envelope glycoprotein (Env) (HIV-1). Description: cell-based or functional assay.
In test [32] the target is HIV-1 Env of isolate MGRM-A-006 (HIV-1). Description: cell-based or functional assay.
Test [33] has as its target HIV-1 Env of isolate MGRM-A-013 (HIV-1). In words: cell-based or functional assay.
In test [34] the target is HIV-1 Env of isolate 92WR026 (HIV-1). Description: cell-based or functional assay.
Test [35] concerns the target HIV-1 MGRM-C-026 envelope glycoprotein (Env) (HIV-1). Description: cell-based or functional assay.
Test [36] addresses HIV-1 Env of isolate 92WR021 (HIV-1). Description: cell-based or functional assay.
The target of test [37] is HIV-1 Env of isolate MGRM-A-007 (HIV-1). In words: cell-based or functional assay.
Test [38] concerns the target JR-FL gp120 ΔV3 (HIV-1 (isolate JR-FL)). In words: ELISA on coated gp120; EC50 by nonlinear regression.
For test [39], the target named is HIV-1 Env of isolate 93IN905 (HIV-1). In words: cell-based or functional assay.
In test [40] the target is Env of the clade AE HIV-1 pseudoviruses of the cross-clade 162-pseudovirus panel (n = 10). Description: cell-based or functional assay.

B1: PGT-123 (antibody, V domains shown)
VH: QLHLQESGPGLVKPPETLSLTCSVSGASINDAYWSWIRQSPGKRPEWVGYVHHSGDTNYNPSLKRRVTFSLDTAKNEVSLKLVDLTAADSATYFCARALHGKRIYGIVALGELFTYFYMDVWGKGTAVTVSS
VL: SSMSVSPGETAKISCGKESIGSRAVQWYQQKPGQPPSLIIYNNQDRPAGVPERFSASPDFRPGTTATLTITNVDAEDEADYYCHIYDARGGTNWVFDRGTTLTVL
Take B1: the IC50 (µg/mL), pseudovirus neutralization in test [1] was 0.003 µg/mL; in [4] it was 15.7 µg/mL; in test [5], 0.011 µg/mL; in [6] it was 0.705 µg/mL; in [7], over 50 µg/mL; in [8], 0.004 µg/mL. Also, the IC50 (µg/mL), pseudovirus neutralization in test [10] is 0.678 µg/mL; in test [11], over 50 µg/mL; in [13], 0.495 µg/mL; in test [14], over 50 µg/mL; in test [16] it was 0.003 µg/mL; in [17], 0.192 µg/mL. The IC50 (µg/mL), pseudovirus neutralization was over 50 µg/mL in [18]; 0.023 µg/mL in test [21]; over 50 µg/mL in test [22]; over 50 µg/mL in test [23]; over 50 µg/mL in test [25]; 0.024 µg/mL in [26]. The IC50 (µg/mL), pseudovirus neutralization in test [29] was over 50 µg/mL; in test [30], over 50 µg/mL; in test [32] it was over 50 µg/mL; in [33], 0.565 µg/mL; in [34], 0.012 µg/mL; in test [36] it was 0.005 µg/mL. For the same molecule, the IC50 (µg/mL), pseudovirus neutralization in [37] was over 50 µg/mL. Further, the IC50 neutralization in test [2] is 0.0283 µg/mL; in test [3], 0.0303 µg/mL; in test [9], 0.0423 µg/mL; in test [12], over 10 µg/mL; in [15], 0.492 µg/mL; in test [19], 0.846 µg/mL. For the same molecule, the IC50 neutralization is 0.0169 µg/mL in test [20], 0.0071 µg/mL in test [28], 0.18 µg/mL in test [31] and 0.0031 µg/mL in [35]. In addition, the Primary Neutralization Index (B cell culture well 4858 P8) in test [10] was found to be 1.1; in test [27], 2.8. This molecule also yielded a Fold IC50 increase relative to wild-type in test [24] of 14.5 fold.

B2: PGT-135 (antibody, V domains shown)
VH: QLQMQESGPGLVKPSETLSLSCTVSGDSIRGGEWGDKDYHWGWVRHSAGKGLEWIGSIHWRGTTHYKESLRRRVSMSIDTSRNWFSLRLASVTAADTAVYFCARHRHHDVFMLVPIAGWFDVWGPGVQVTVSS
VL: EIVMTQSPDTLSVSPGETVTLSCRASQNINKNLAWYQYKPGQSPRLVIFETYSKIAAFPARFVASGSGTEFTLTINNMQSEDVAVYYCQQYEEWPRTFGQGTKVDIK
Turning to B2, the EC50 in [38] came out at 0.2 µg/mL. Besides, the IC50 neutralization was over 10 µg/mL in test [2]; over 10 µg/mL in test [3]; 0.113 µg/mL in test [9]; 6.79 µg/mL in test [12]; over 10 µg/mL in test [15]; over 10 µg/mL in test [19]. The IC50 neutralization was over 10 µg/mL in test [20], 0.0183 µg/mL in [28], over 10 µg/mL in [31] and 0.0123 µg/mL in [35]. In test [39], this molecule yielded a Primary Neutralization Index (B cell culture well 5343 B8) of 43. In test [39], this molecule registered a Primary Neutralization Index (B cell culture well 5344 E16) of 2.3. The molecule further registered a Fold IC50 increase relative to wild-type in test [24] of 0.4 fold.

B3: PGT-126 (antibody, V domains shown)
VH: QPQLQESGPGLVEASETLSLTCTVSGDSTAACDYFWGWVRQPPGKGLEWIGGLSHCAGYYNTGWTYHNPSLKSRLTISLDTPKNQVFLKLNSVTAADTAIYYCARFDGEVLVYHDWPKPAWVDLWGRGTLVTVSS
VL: QSALTQPPSASGSPGQSISISCTGTSNRFVSWYQQHPGKAPKLVIYGVNKRPSGVPDRFSGSKSGNTASLTVSGLQTDDEAVYYCSSLVGNWDVIFGGGTKLTVL
B3: the IC50 (µg/mL), pseudovirus neutralization in [1] was 0.008 µg/mL; in test [4] it was over 50 µg/mL; in test [5], 0.015 µg/mL; in [6], 0.002 µg/mL; in test [7] it was over 50 µg/mL; in test [8], 0.004 µg/mL. Also, the IC50 (µg/mL), pseudovirus neutralization in test [10] is 0.008 µg/mL; in [11], over 50 µg/mL; in test [13], over 50 µg/mL; in [14], over 50 µg/mL; in test [16], 0.01 µg/mL; in [17], 0.097 µg/mL. Also, the IC50 (µg/mL), pseudovirus neutralization in test [18] was over 50 µg/mL; in test [21], 0.011 µg/mL; in test [22] it was over 50 µg/mL; in test [23], over 50 µg/mL; in [25], over 50 µg/mL; in test [26], 0.006 µg/mL. The IC50 (µg/mL), pseudovirus neutralization was over 50 µg/mL in test [29]; 42 µg/mL in [30]; over 50 µg/mL in test [32]; 0.006 µg/mL in test [33]; 0.008 µg/mL in test [34]; 0.006 µg/mL in test [36]. Besides, the IC50 (µg/mL), pseudovirus neutralization in test [37] is over 50 µg/mL. The IC50 neutralization was 0.014 µg/mL in test [2]; 0.0256 µg/mL in test [3]; 0.0061 µg/mL in test [9]; over 10 µg/mL in [12]; 0.0033 µg/mL in test [15]; 0.0091 µg/mL in test [19]. The IC50 neutralization came to 1.14 µg/mL in [20], 0.0194 µg/mL in test [28], 0.501 µg/mL in test [31] and 0.0076 µg/mL in [35]. The molecule further came in with a Fold IC50 increase relative to wild-type in test [24] of 3.3 fold. This molecule also yielded a Median IC50 against viruses neutralized with an IC50 <50 µg/ml in test [40] of 1.77 µg/mL.

B4: PGT-128 (antibody, V domains shown)
VH: QPQLQESGPTLVEASETLSLTCAVSGDSTAACNSFWGWVRQPPGKGLEWVGSLSHCASYWNRGWTYHNPSLKSRLTLALDTPKNLVFLKLNSVTAADTATYYCARFGGEVLRYTDWPKPAWVDLWGRGTLVTVSS
VL: QSALTQPPSASGSPGQSITISCTGTSNNFVSWYQQHAGKAPKLVIYDVNKRPSGVPDRFSGSKSGNTASLTVSGLQTDDEAVYYCGSLVGNWDVIFGGGTKLTVL
Regarding B4, the EC50 in [38] is 7.8 µg/mL. In test [40], this molecule displayed a Median IC50 against viruses neutralized with an IC50 <50 µg/ml of 0.05 µg/mL.

One may read the EC50 as the midpoint of the concentration-response curve.
